Source: patent publication WO2018039626A1 (dated 2018)

B1: sdA1 (human single domain antibody targeting CD16A) (VHH)
VHH: EVQLVESGGGLVQPGGSLRLSCAASGFTFSNYGMSWVRQAPGKGLEWIGSIYYSGGSTNYNPSLKGSLVISRDNSKNTLYLQMNSLAEDTATYYCARESIDYWGQGTLVTVSS
notes: Human VH single domain (VH3-23 scaffold), not camelid; Purified by Ni-NTA and detected with anti-Flag-HRP, so His and Flag tags were present; also called sdAl; D6
B2: sdA2 (human single domain antibody targeting CD16A) (VHH)
VHH: EVQLVESGGGLVQPGGSLRLSCAASGFTFSSYGMSWVRQAPGKGLEWIGEVNHSGGSTNYNPSLKGSFVISRDNSKNTLYLQMNSLAEDTAVYYCARVGSFDFWGQGTLVTVSS
notes: Human VH single domain; His and Flag tags are implied (Ni-NTA, anti-Flag-HRP); also called E11; El 1

Target: T1, recombinant CD16A ectodomain (human, UniProt P08637 17-208)
T1 construct: extracellular domain
T1 sequence (P08637 17-208): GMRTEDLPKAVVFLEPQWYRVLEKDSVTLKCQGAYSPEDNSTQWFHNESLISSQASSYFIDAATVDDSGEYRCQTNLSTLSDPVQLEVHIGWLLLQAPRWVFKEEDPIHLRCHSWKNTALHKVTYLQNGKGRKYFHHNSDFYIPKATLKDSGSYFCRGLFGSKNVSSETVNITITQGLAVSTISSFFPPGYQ
Assay: ELISA, CD16A ectodomain coated at 50 ng/well, sdA detected with anti-Flag-HRP

Binder	EC50 [nM]
B1	0.1
B2	0.3
